Laboratory results published in patent US20090075898A1 (YEDA RESEARCH AND DEVELOPMENT CO LTD AT THE WEIZMANN …, published 2009).
Ends that are not written are not given here. * marks the point of attachment. Biotin = O=C1N[C@H]2[C@H](CS[C@H]2CCCCC(=O)*)N1

T1: multisubunit FcεRI receptor complex on rat RBL-2H3 cells and rat peritoneal mast cells (rat, UniProt P12371 24-245; P13386 1-243; P20411 19-86)
T1 sequence (looked up) 1: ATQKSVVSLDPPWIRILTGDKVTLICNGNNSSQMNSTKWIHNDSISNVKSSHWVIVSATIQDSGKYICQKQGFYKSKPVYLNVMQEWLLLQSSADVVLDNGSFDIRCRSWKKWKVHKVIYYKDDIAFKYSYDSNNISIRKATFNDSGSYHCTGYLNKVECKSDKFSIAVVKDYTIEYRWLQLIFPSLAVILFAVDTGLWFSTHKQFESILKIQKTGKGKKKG
T1 sequence (looked up) 2: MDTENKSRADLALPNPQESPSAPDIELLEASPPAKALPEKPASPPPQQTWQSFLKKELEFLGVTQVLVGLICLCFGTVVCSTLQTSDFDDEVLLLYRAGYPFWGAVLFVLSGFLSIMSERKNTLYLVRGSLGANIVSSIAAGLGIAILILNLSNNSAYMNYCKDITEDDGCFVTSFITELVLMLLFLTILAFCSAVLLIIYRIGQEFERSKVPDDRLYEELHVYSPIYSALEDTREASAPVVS
T1 sequence (looked up) 3: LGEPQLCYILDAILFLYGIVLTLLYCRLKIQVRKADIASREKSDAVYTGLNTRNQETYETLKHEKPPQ

T2: β-chain of the high affinity IgE receptor (FcεRI) on mouse bone marrow derived mast cells (mouse, UniProt P20490 1-235)
T2 sequence (looked up): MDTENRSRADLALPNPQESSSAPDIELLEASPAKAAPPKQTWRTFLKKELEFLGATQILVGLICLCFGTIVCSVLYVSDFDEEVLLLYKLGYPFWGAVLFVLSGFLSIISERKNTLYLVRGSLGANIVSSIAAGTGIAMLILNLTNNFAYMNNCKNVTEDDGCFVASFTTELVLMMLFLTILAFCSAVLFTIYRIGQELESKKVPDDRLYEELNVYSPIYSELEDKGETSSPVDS

T3: C5a (UniProt P01031 678-751)
T3 construct: domain: C5a; Control analyte in SPR
T3 sequence (looked up): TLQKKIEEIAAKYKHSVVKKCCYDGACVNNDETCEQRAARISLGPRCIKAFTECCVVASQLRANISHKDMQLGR

B1: human complement component C3a (ligand)
chain: not shown
B2: biotinylated peptide of the 1st extracellular loop of the human FcεRI β chain (peptide)
peptide: Biotin-SVLDISHIEGDIFSSFKAGY
notes: also called first extracellular loop of human FcεRI β-chain
B3: biotinylated peptide of the 2nd extracellular loop of the human FcεRI β chain (peptide)
peptide: Biotin-KSLAYIHIHSCQKFFETKCFMAS
modifications: cysteine pairing not given here
notes: also called second extracellular loop of human FcεRI β-chain

Key:
[1] = biological target: T1, multisubunit FcεRI receptor complex on …; assay: cell-based or functional assay
[2] = biological target: T2, β-chain of the high affinity IgE …; assay: cell-based or functional assay
[3] = biological target: B1; assay: SPR (BIACORE 2000), biotinylated peptide on streptavidin chip, C3a as analyte; Kd = koff/kon from kobs plots; first extracellular loop of the human protein
C5a = biological target: T3, C5a; assay: SPR (BIACORE 2000), peptide on streptavidin chip, C5a as analyte
[4] = biological target: B1; assay: SPR (BIACORE 2000), peptide on streptavidin chip, C3a as analyte

Binder	Inhibitory effect (IC50, µM) on the IgE-mediated degranulation of RBL-2H3 [1]	Inhibitory effect (IC50, µM) on the IgE-mediated degranulation of BMMC [2]	Kd [3]	binding result (C5a)	binding result [4]
B1	2.4 µM	0.2 µM			
B2			250 nM	no binding	
B3				no binding	no binding
